Test results published in the Human Domainome abundance scans (Beltran et al. 2025).
± gives the uncertainty stated by the source.

B1: Apoptosis-associated speck-like protein containing a CARD, residues 114 to 194; numbered along this chain, Q9ULZ3 (parent)
chain: FIDQHRAALIARVTNVEWLLDALYGKVLTDEQYQAVRAEPTNPSKMRKLFSFTPAWNWTCKDLLLQALRESQSYLVEDLER

Variants of: B1
Assay: abundance fitness (aPCA) (normalised: wild type 0, dead -1); higher = more abundant; growth selection in yeast, the domain comes from the species named
Details: Homo sapiens

Question: For FIDQHRAALIARVTNVEWLLTALYGKVLTDEQYQAVRAEPTNPSKMRKLFSFTPAWNWTCKDLLLQALRESQSYLVEDLER [D21T], which abundance fitness is on record?
Answer: -0.313 ± 0.07

Question: Which abundance fitness does the source give for FIDQHRAALIARVTNVEWLLMALYGKVLTDEQYQAVRAEPTNPSKMRKLFSFTPAWNWTCKDLLLQALRESQSYLVEDLER [D21M] here?
Answer: -0.292 ± 0.092

Question: With FIDQHRAALIARVTNVEWLLWALYGKVLTDEQYQAVRAEPTNPSKMRKLFSFTPAWNWTCKDLLLQALRESQSYLVEDLER [D21W] as the variant, how does the abundance fitness read?
Answer: -0.496 ± 0.084

Question: For FIDQHRAALIARVTNVEWLLEALYGKVLTDEQYQAVRAEPTNPSKMRKLFSFTPAWNWTCKDLLLQALRESQSYLVEDLER [D21E], which abundance fitness is on record?
Answer: -0.091 ± 0.069

Question: Which abundance fitness does the source give for FIDQHRAALIARVTNVEWLLFALYGKVLTDEQYQAVRAEPTNPSKMRKLFSFTPAWNWTCKDLLLQALRESQSYLVEDLER [D21F] here?
Answer: -0.801 ± 0.31

Question: With FIDQHRAALIARVTNVEWLLHALYGKVLTDEQYQAVRAEPTNPSKMRKLFSFTPAWNWTCKDLLLQALRESQSYLVEDLER [D21H] as the variant, how does the abundance fitness read?
Answer: -0.162 ± 0.073

Question: For FIDQHRAALIARVTNVEWLLAALYGKVLTDEQYQAVRAEPTNPSKMRKLFSFTPAWNWTCKDLLLQALRESQSYLVEDLER [D21A], which abundance fitness is on record?
Answer: -0.477 ± 0.052

Question: For FIDQHRAALIARVTNVEWLLCALYGKVLTDEQYQAVRAEPTNPSKMRKLFSFTPAWNWTCKDLLLQALRESQSYLVEDLER [D21C], which abundance fitness is on record?
Answer: -0.466 ± 0.13

Question: With FIDQHRAALIARVTNVEWLLKALYGKVLTDEQYQAVRAEPTNPSKMRKLFSFTPAWNWTCKDLLLQALRESQSYLVEDLER [D21K] as the variant, how does the abundance fitness read?
Answer: -0.287 ± 0.11

Question: Which abundance fitness does the source give for FIDQHRAALIARVTNVEWLLIALYGKVLTDEQYQAVRAEPTNPSKMRKLFSFTPAWNWTCKDLLLQALRESQSYLVEDLER [D21I] here?
Answer: -0.69 ± 0.24

Question: With FIDQHRAALIARVTNVEWLLQALYGKVLTDEQYQAVRAEPTNPSKMRKLFSFTPAWNWTCKDLLLQALRESQSYLVEDLER [D21Q] as the variant, how does the abundance fitness read?
Answer: -0.115 ± 0.082

Question: With FIDQHRAALIARVTNVEWLLNALYGKVLTDEQYQAVRAEPTNPSKMRKLFSFTPAWNWTCKDLLLQALRESQSYLVEDLER [D21N] as the variant, how does the abundance fitness read?
Answer: -0.264 ± 0.086

Question: With FIDQHRAALIARVTNVEWLLGALYGKVLTDEQYQAVRAEPTNPSKMRKLFSFTPAWNWTCKDLLLQALRESQSYLVEDLER [D21G] as the variant, how does the abundance fitness read?
Answer: -0.331 ± 0.047

Question: Which abundance fitness does the source give for FIDQHRAALIARVTNVEWLLLALYGKVLTDEQYQAVRAEPTNPSKMRKLFSFTPAWNWTCKDLLLQALRESQSYLVEDLER [D21L] here?
Answer: -0.695 ± 0.091

Question: For FIDQHRAALIARVTNVEWLLRALYGKVLTDEQYQAVRAEPTNPSKMRKLFSFTPAWNWTCKDLLLQALRESQSYLVEDLER [D21R], which abundance fitness is on record?
Answer: -0.33 ± 0.04

Question: Which abundance fitness does the source give for FIDQHRAALIARVTNVEWLLPALYGKVLTDEQYQAVRAEPTNPSKMRKLFSFTPAWNWTCKDLLLQALRESQSYLVEDLER [D21P] here?
Answer: -0.987 ± 0.19

Question: For FIDQHRAALIARVTNVEWLMDALYGKVLTDEQYQAVRAEPTNPSKMRKLFSFTPAWNWTCKDLLLQALRESQSYLVEDLER [L20M], which abundance fitness is on record?
Answer: -0.458 ± 0.093

Question: For FIDQHRAALIARVTNVEWLFDALYGKVLTDEQYQAVRAEPTNPSKMRKLFSFTPAWNWTCKDLLLQALRESQSYLVEDLER [L20F], which abundance fitness is on record?
Answer: -0.621 ± 0.23

Question: With FIDQHRAALIARVTNVEWLDDALYGKVLTDEQYQAVRAEPTNPSKMRKLFSFTPAWNWTCKDLLLQALRESQSYLVEDLER [L20D] as the variant, how does the abundance fitness read?
Answer: -0.518 ± 0.12

Question: Which abundance fitness does the source give for FIDQHRAALIARVTNVEWLCDALYGKVLTDEQYQAVRAEPTNPSKMRKLFSFTPAWNWTCKDLLLQALRESQSYLVEDLER [L20C] here?
Answer: 0.005 ± 0.08

Question: With FIDQHRAALIARVTNVEWLEDALYGKVLTDEQYQAVRAEPTNPSKMRKLFSFTPAWNWTCKDLLLQALRESQSYLVEDLER [L20E] as the variant, how does the abundance fitness read?
Answer: -0.723 ± 0.13

Question: With FIDQHRAALIARVTNVEWLVDALYGKVLTDEQYQAVRAEPTNPSKMRKLFSFTPAWNWTCKDLLLQALRESQSYLVEDLER [L20V] as the variant, how does the abundance fitness read?
Answer: -0.388 ± 0.051

Question: Which abundance fitness does the source give for FIDQHRAALIARVTNVEWLYDALYGKVLTDEQYQAVRAEPTNPSKMRKLFSFTPAWNWTCKDLLLQALRESQSYLVEDLER [L20Y] here?
Answer: -0.626 ± 0.39

Question: Which abundance fitness does the source give for FIDQHRAALIARVTNVEWLGDALYGKVLTDEQYQAVRAEPTNPSKMRKLFSFTPAWNWTCKDLLLQALRESQSYLVEDLER [L20G] here?
Answer: -0.901 ± 0.093

Question: With FIDQHRAALIARVTNVEWLSDALYGKVLTDEQYQAVRAEPTNPSKMRKLFSFTPAWNWTCKDLLLQALRESQSYLVEDLER [L20S] as the variant, how does the abundance fitness read?
Answer: -0.583 ± 0.077

Question: With FIDQHRAALIARVTNVEWLPDALYGKVLTDEQYQAVRAEPTNPSKMRKLFSFTPAWNWTCKDLLLQALRESQSYLVEDLER [L20P] as the variant, how does the abundance fitness read?
Answer: -0.543 ± 0.11

Question: Which abundance fitness does the source give for FIDQHRAALIARVTNVEWLNDALYGKVLTDEQYQAVRAEPTNPSKMRKLFSFTPAWNWTCKDLLLQALRESQSYLVEDLER [L20N] here?
Answer: -0.797 ± 0.33

Question: Which abundance fitness does the source give for FIDQHRAALIARVTNVEWLRDALYGKVLTDEQYQAVRAEPTNPSKMRKLFSFTPAWNWTCKDLLLQALRESQSYLVEDLER [L20R] here?
Answer: -0.917 ± 0.095

Question: With FIDQHRAALIARVTNVEWLIDALYGKVLTDEQYQAVRAEPTNPSKMRKLFSFTPAWNWTCKDLLLQALRESQSYLVEDLER [L20I] as the variant, how does the abundance fitness read?
Answer: -0.179 ± 0.094

Question: For FIDQHRAALIARVTNVEWLQDALYGKVLTDEQYQAVRAEPTNPSKMRKLFSFTPAWNWTCKDLLLQALRESQSYLVEDLER [L20Q], which abundance fitness is on record?
Answer: -0.854 ± 0.2

Question: With FIDQHRAALIARVTNVEWYLDALYGKVLTDEQYQAVRAEPTNPSKMRKLFSFTPAWNWTCKDLLLQALRESQSYLVEDLER [L19Y] as the variant, how does the abundance fitness read?
Answer: 0.243 ± 0.21

Question: With FIDQHRAALIARVTNVEWWLDALYGKVLTDEQYQAVRAEPTNPSKMRKLFSFTPAWNWTCKDLLLQALRESQSYLVEDLER [L19W] as the variant, how does the abundance fitness read?
Answer: -0.643 ± 0.11

Question: Which abundance fitness does the source give for FIDQHRAALIARVTNVEWVLDALYGKVLTDEQYQAVRAEPTNPSKMRKLFSFTPAWNWTCKDLLLQALRESQSYLVEDLER [L19V] here?
Answer: -0.051 ± 0.05

Question: With FIDQHRAALIARVTNVEWTLDALYGKVLTDEQYQAVRAEPTNPSKMRKLFSFTPAWNWTCKDLLLQALRESQSYLVEDLER [L19T] as the variant, how does the abundance fitness read?
Answer: -0.912 ± 0.17
